Tests used:
Assay type in all cases: biochemical
[1] = Assay for DEHU hydrogenase (NADPH dependent DEHU hydrogenation); conditions: cell lysate, absorbance at 340 nm for 30 min, FIG. 7A
Experimental: (§1) To identify DEHU hydrogenase, a NADPH dependent DEHU hydrogenation assay was performed. 20 μl of prepared cell lysate containing each ADH was added to 160 μl of 20-fold deluted DEHU solution prepared in the above section. 20 μl of 2.5 mg/ml of NADPH solution (20 mM Tris-HCl, pH 8.0) was added to initiate the hydrogenation reaction, as a preliminary study using cell lysate of A. tumefaciens C58 have shown that DEHU hydrogenation requires NADPH as a co-factor. The consumption of NADPH was monitored an absorbance at 340 nm for 30 min using the kinetic mode of ThermoMAX 96 well plate reader (Molecular Devises). E. coli cell lysate containing alcohol dehydrogenase (ADH) 10 lacking a portion of N-terminal domain was used in a control reaction mixture.

[2] = NADPH Production Assay (oxidation of 4-octanol); conditions: NADP+, 30° C., FIG. 30B
Experimental: Various secondary alcohol dehydrogenases (2ADHs) were isolated from Pseudomonas putida KT2440, Pseudomonas fluorescens Pf-5, and Klebsiella pneumoniae MGH 78578. All vectors were transformed in BL21(DE3) competent cells and expression of the genes encoding the proteins of interest was induced with IPTG (via the T7 promoter). The cells were lysed, proteins were extracted and then purified on Ni-NTA columns. Final protein concentration in the Ni-NTA eluate was diluted to 0.15 mg/mL prior to assays.
[…] consumption and production assays were performed using a THERMOmax microplate reader in the kinetic mode, monitoring the NADPH absorbance peak at 340 nm until the reaction reached equilibrium. […] These reaction conditions are found in Table 4 below.

[3] = In vitro pyruvate formation from alginate or mannuronate; conditions: purified enzyme ~5 ug, over night, pyruvate assay kit, FIG. 6B and 6C
[4] = Assay for D-mannuronate hydrogenase (NADPH dependent hydrogenation); conditions: cell lysate, absorbance at 340 nm for 30 min, FIG. 7B
Experimental: as §1, with “D-mannuronate” for “DEHU”, “D-mannuronate” for “20-fold deluted DEHU”, “reaction.” for “reaction, as a preliminary study using cell lysate of A. tumefaciens C58 have shown that DEHU hydrogenation requires NADPH as a co-factor.”

Row | Molecule | oxidation of 4-octanol measured by NADPH production [2] | mannuronate hydrogenase activity monitored by NADPH consumption [4] | also measured
1 | ADH2: alcohol dehydrogenase ADH2 Atu2022 isolated from Agrobacterium tumefaciens C58, SEQ ID NO:72 (protein, Agrobacterium tumefaciens C58) MAIARGYAATDASKPLTPFTFERREPNDDDVVIDIKYAGICHSDIHTVRNEWHNAVYPIVPGHEIAGVVRAVGSKVTRFKVGDHVGVGCFVDSCVGCATRDVDNEQYMPGLVQTYNSVERDGKSATQGGYSDHIVVREDYVLSIPDNLPLDASAPLLCAGITLYSPLQHWNAGPGKKVAIVGMGGLGHMGVKIGSAMGADITVLSQTLSKKEDGLKLGAKEYYATSDASTFEKLAGTFDLILCTVSAEIDWNAYLNLLKVNGTMVLLGVPEHAIPVHAFSVIPARRSLAGSMIGSIKETQEMLDFCGKHDIVSEIETIGIKDVNEAYERVLKSDVRYRFVIDMASLDA | – | – | DEHU hydrogenase activity monitored by NADPH consumption [1]: significant DEHU hydrogenase activity
2 | 2ADH-10: secondary alcohol dehydrogenase isolated from Pseudomonas putida KT2440, SEQ ID NO:128 (protein, Pseudomonas putida KT2440) MSKTHLFDLDGKIAFVSGASRGIGEAIAHLLAQQGAHVIVSSRKLDGCQQVADAIIAAGGKATAVACHIGELEQIQQVFAGIREQFGRLDVLVNNAATNPQFCNVLDTDPGAFQKTVDVNIRGYFFMSVEAGKLMRENGGGSIINVASINGVSPGLFQGIYSVTKAAVINMTKVFAKECAPFGIRCNALLPGLTDTKFASALVKNEAILNAALQQIPLKRVADPKEMAGAVLYLASDASSYTTGTTLNVDGGFLS | catalyze the oxidation of 4-octanol in the presence of NADP+ | – | –
3 | Atu3027 (ADH11): alcohol dehydrogenase ADH11 Atu3027 isolated from Agrobacterium tumefaciens C58, SEQ ID NO:90 (protein, Agrobacterium tumefaciens C58) MRSELPEGFFGPREWARLNAVADIIPGFPHTDFDTANGAEALAEADILLAAWGTPSLTRERLSRAPRLKMLAYAASSVRMVAPAEFWETSDILVTTAASAMAVPVAEFTYAAIIMCGKDVFRLRDEHRTERGTGVFGSRRGRSLPYLGNHARKVGIVGASRIGRLVMEMLARGTFEIAVYDPFLSAEEAASLGAKKAELDELLAWSDVVSLHAPILPETHHMIGARELALMADHAIFINTARGWLVDHDALLTEAISGRLRILIDTPEPEPLPTDSPFYDLPNVVLTPHIAGALGNELRALSDLAITEIERFVAGLAPLHPVHKQDMERMA | – | – | catalysis of DEHU hydrogenase and mannuronate hydrogenase reactions in pyruvate formation from alginate [3]: capable of catalyzing both DEHU hydrogenase and mannuronate hydrogenase reactions
4 | 2ADH-8: secondary alcohol dehydrogenase isolated from Pseudomonas putida KT2440, SEQ ID NO:124 (protein, Pseudomonas putida KT2440) MSLQGKVALVTGASRGIGQAIALELGRQGATVIGTATSASGAERIAATLKEHGITGTGMELNVTSAESVEAVLAAIGEQFGAPAILVNNAGITRDNLMLRMKDDEWFDVIDTNLNSLYRLSKGVLRGMTKARWGRIISIGSVVGAMGNAGQANYAAAKAGLEGFSRALAREVGSRGITVNSVTPGFIDTDMTRELPEAQREALQTQIPLGRLGQADEIAKVVSFLASDGAAYVTGATVPVNGGMYM | catalyze the oxidation of 4-octanol in the presence of NADP+ | – | –
5 | ADH1: alcohol dehydrogenase ADH1 Atu1557 isolated from Agrobacterium tumefaciens C58, SEQ ID NO:70 (protein, Agrobacterium tumefaciens C58) MFTTSAYACDDGSSPMKLATIRRRDPGPRDVEIEIEFCGVCHSDIHTARSEWPGSLYPCVPGHEIVGRVGRVGAQVTRFKTGDRVGVGCIVDSCRECASCAEGLEQYCENGMTGTYNSPDKAMGGGAHTLGGYSAHVVVDDRYVLNIPEGLDPAAAAPLLCAGITTYSPLRHWNAGPGKRVGVVGLGGLGHMAVKLANAMGATVVMITTSPGKAEDAKKLGAHEVIISRDAEQMKKATSSLDLIIDAVAADHDIDAYLALLKRDGALVQVGAPEKPLSVMAFSLIPGRKTFAGSMIGGIPETQEMLDFCAEKGIAGEIEMIDIDQINDAYERMIKSDVRYRFVIDMKSLPRQKAA | – | – | DEHU hydrogenase activity monitored by NADPH consumption [1]: significant DEHU hydrogenase activity
6 | ADH9: alcohol dehydrogenase ADH9 Atu4087 isolated from Agrobacterium tumefaciens C58, SEQ ID NO:86 (protein, Agrobacterium tumefaciens C58) MKAIVAHGAKDVRIEDRPEEKPGPGEVRLRLARGGICGSDLHYYNHGGFGAVRLREPMVLGHEVSAVIEELGEGVEGLKIGGLVAVSPSRPCRTCRFCQEGLHNQCLNMRFYGSAMPFPHIQGAFREILVADALQCVPADGLSAGEAAMAEPLAVTLHATRRAGDLLGKRVLVTGCGPIGILSILAARRAGAAEIVATDLSDFTLGKAREAGADRVINSKDEPDALAAYGANKGTFDILYECSGAAVALAGGITALRPRGIIVQLGLGGDMSLPMMAITAKELDLRGSFRFHEEFATGVELMRKGLIDVKPFITQTVDLADAISAFEFASDRSRAMKVQIAFS | – | significant mannuronate hydrogenase activity | –
7 | ADH4: alcohol dehydrogenase ADH4 Atu5240 isolated from Agrobacterium tumefaciens C58, SEQ ID NO:76 (protein, Agrobacterium tumefaciens C58) MTGANQPWEVQEVPVPKAEPGLVLVKIHASGMCYTDVWATQGAGGDIYPQTPGHEVVGEIIEVGAGVHTRKVGDRVGTTWVQSSCGRCSYCRQNRPLTGQTAMNCDSPRTTGFATQGGHAEYIAISAEGTVLLPDGLDYTDAAPMMCAGYTTWSGLRDAEPKPGDRIAVLGIGGLGHVAVQFSKALGFETIAITHSPDKHKLATDLGADIVVADGKELLEAGGADVLLVTTNDFDTAEKAMAGVRPDGRIVLCALDFSKPFSIPSDGKPFHMMRQRVVGSTHGGQHYLAEILDLAAKGKVKPIVETFALEQATEAYERLSTGKMRFRGVFLPHGA | – | significant mannuronate hydrogenase activity | –
8 | Atu3026 (ADH12): alcohol dehydrogenase ADH12 Atu3026 isolated from Agrobacterium tumefaciens C58, SEQ ID NO:92 (protein, Agrobacterium tumefaciens C58) MQRFTNRTIVVAGAGRDIGRACAIRFAQEGANVVLTYNGAAEGAATAVAEIEKLGRSALAIKADLTNAAEVEAAISAAADKFGEIHGLVHVAGGLIARKTIAEMDEAFWHQVLDVNLTSLFLTAKTALPKMAKGGAIVTFSSQAGRDGGGPGALAYATSKGAVMTFTRGLAKEVGPKIRVNAVCPGMISTTFHDTFTKPEVRERVAGATSLKREGSSEDVAGLVAFLASDDAAYVTGACYDINGGVLFS | – | – | catalysis of DEHU hydrogenase and mannuronate hydrogenase reactions in pyruvate formation from alginate [3]: capable of catalyzing both DEHU hydrogenase and mannuronate hydrogenase reactions
9 | 2ADH-5: secondary alcohol dehydrogenase isolated from Pseudomonas putida KT2440, SEQ ID NO:118 (protein, Pseudomonas putida KT2440) MSKQLTLEGKVALVQGGSRGIGAAIVRRLAREGAQVAFTYVSSAGPAEELAREITENGGKALALRADSADAAAVQLAVDDTEKALGRLDILVNNAGVLAVAPVTEFDLADFDHMLAVNVRSVFVASQAAARYMGQGGRIINIGSTNAERMPFAGGAPYAMSKSALVGLTRGMARDLGPQGITVNNVQPGPVDTDMNPASGEFAESLIPLMAIGRYGEPEEIASFVAYLAGPEAGYITGASLTVDGGFAA | catalyze the oxidation of 4-octanol in the presence of NADP+ | – | –
10 | ADH3: alcohol dehydrogenase ADH3 Atu0626 isolated from Agrobacterium tumefaciens C58, SEQ ID NO:74 (protein, Agrobacterium tumefaciens C58) MTKTMKAAVVRAFGKPLTIEEVAIPDPGPGEILINYKATGVCHTDLHAATGDWPVKPNPPFIPGHEGAGYVAKIGAGVTGIKEGDRAGTPWLYTACGCCIPCRTGWETLCPSQKNSGYSVNGSFAEYGLADPKFVGRLPDNLDFGPAAPVLCAGVTVYKGLKETEVRPGEWVVISGIGGLGHMAVQYAKAMGMHVVAADIFDDKLALAKKLGADVVVNGRAPDAVEQVQKATGGVHGALVTAVSPKAMEQAYGFLRSKGTMALVGLPPGFISIPVFDTVLKRITVRGSIVGTRQDLEEALTFAGEGKVAAHFSWDKLENINDIFHRMEEGKIDGRIVVDLAA | – | significant mannuronate hydrogenase activity | –

Source: US20090155873A1, “BIOFUEL PRODUCTION” (BIO ARCHITECTURE LAB, INC., priority 2007, published 2009)
